Experimental findings from paper PMC8245648, “The R2R3-type MYB transcription factor MdMYB90-like is responsible for the enhanced skin color of an apple bud sport mutant” are described below.

The target of data set [1] is T1, MdMYB90-like (Malus domestica (Fuji apple / M_Fuji …, UniProt A0A498J9W0 1-206)).
T1 sequence: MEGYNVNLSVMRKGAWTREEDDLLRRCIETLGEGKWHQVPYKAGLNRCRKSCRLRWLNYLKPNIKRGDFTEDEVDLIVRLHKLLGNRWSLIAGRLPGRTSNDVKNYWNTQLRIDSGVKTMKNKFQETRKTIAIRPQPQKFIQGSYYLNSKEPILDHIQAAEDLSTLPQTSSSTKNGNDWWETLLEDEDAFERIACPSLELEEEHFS
In words: EMSA; EMSA, Beyotime Chemiluminescent EMSA Kit, 1x kit binding buffer, 10 uL total; salt, pH and temperature not stated. As to conditions: protein: recombinant; tags: MBP (pMAL-c5X fusion); label: biotin; blunt.

For data set [2], the target named is T1, MdMYB90-like. In words: competition; unlabeled mutant did not reduce binding to N1; EMSA, Beyotime Chemiluminescent EMSA Kit, 1x kit binding buffer, 10 uL total; salt, pH and temperature not stated. As to conditions: protein: recombinant; tags: MBP (pMAL-c5X fusion); blunt. (In EMSA bound probe runs differently from free probe, usually more slowly.)
Data set [3] has as its target T1, MdMYB90-like. In words: competition; unlabeled mutant did not reduce binding to N5; EMSA, Beyotime Chemiluminescent EMSA Kit, 1x kit binding buffer, 10 uL total; salt, pH and temperature not stated. As to conditions: protein: recombinant; tags: MBP (pMAL-c5X fusion); blunt.
For data set [4], the target named is T1, MdMYB90-like. As to the kind of experiment: competition; unlabeled mutant did not reduce binding to N7; EMSA, Beyotime Chemiluminescent EMSA Kit, 1x kit binding buffer, 10 uL total; salt, pH and temperature not stated. As to conditions: protein: recombinant; tags: MBP (pMAL-c5X fusion); blunt.
Data set [5] addresses T1, MdMYB90-like. In words: competition; unlabeled mutant did not reduce binding to N3; EMSA, Beyotime Chemiluminescent EMSA Kit, 1x kit binding buffer, 10 uL total; salt, pH and temperature not stated. As to conditions: protein: recombinant; tags: MBP (pMAL-c5X fusion); blunt.

B1: MYB1 probe (dsDNA)
DNA 1: CGGACCACTCAACGGAACAAATAAG
DNA 2: CTTATTTGTTCCGTTGAGTGGTCCG
With B1, in the data set with MdMYB90-like [1], the binding result was “binds”.

B2: CHS probe (dsDNA)
DNA 1: GACTAATTTCAACTGCTCCCAAAGT
DNA 2: ACTTTGGGAGCAGTTGAAATTAGTC
B2: the binding result with MdMYB90-like [1] is “binds”.

B3: UFGT probe (dsDNA)
DNA 1: TGGTACAAACAACTGCAATAAAATA
DNA 2: TATTTTATTGCAGTTGTTTGTACCA
As for B3, in the data set with MdMYB90-like [1], the binding result is “binds”.

B4: BHLH3 probe (dsDNA)
DNA 1: CCTGCTCACTAACCAATCAAACCCA
DNA 2: TGGGTTTGATTGGTTAGTGAGCAGG
Take B4: the binding result with MdMYB90-like [1] was “binds”.

B5: CHSm probe (dsDNA)
DNA 1: GACTAATTTTGGTAACTCCCAAAGT
DNA 2: ACTTTGGGAGTTACCAAAATTAGTC
In the case of B5, the binding result with MdMYB90-like [2] is listed as “no binding”.

B6: BHLH3m probe (dsDNA)
DNA 1: CCTGCTCACTGGTAAATCAAACCCA
DNA 2: TGGGTTTGATTTACCAGTGAGCAGG
For B6, the binding result in the data set with MdMYB90-like [3] is “no binding”.

B7: MYB1m probe (dsDNA)
DNA 1: CGGACCACTTGGTAAAACAAATAAG
DNA 2: CTTATTTGTTTTACCAAGTGGTCCG
As to B7, the binding result with MdMYB90-like [4] is given as “no binding”.

B8: UFGTm probe (dsDNA)
DNA 1: TGGTACAAATGGTAACAATAAAATA
DNA 2: TATTTTATTGTTACCATTTGTACCA
On to B8, for which the binding result with MdMYB90-like [5] is “no binding”.
